Test results: publication PMC3508667 (Biochemistry, 2012)
Where a chain is given by its changes, count along the chain named.

B1: (Phe94)-scFv (scFv, V domains shown)
VH: DIQLQESGPSLVKPSQTLSLTCSVTGDSITSDYWSWIRKFPGNRLEYMGYVSYSGSTYYNPSLKSRISITRDTSKNQYYLDLNSVTTEDTATYYCANWDGDYWGQGTLVTVSA
VL: DIVLTQSPATLSVTPGNSVSLSCRASQSIGNNLHWYQQKSHESPRLLIKYASQSISGIPSRFSGSGSGTDFTLSINSVETEDFGMYFCQQSNSFPYTFGGGTKLEIT
B2: ^5FW(Phe34)-scFv (scFv, V domains shown)
VH: B1 VH with W34F
VL: B1 VL with F94W
B3: ^5FW(Phe94)-scFv (scFv, V domains shown)
VH: B1 VH
VL: B1 VL
B4: (Phe36)-scFv (scFv, V domains shown)
VH: B1 VH with W36F
VL: B1 VL with F94W
B5: ^5FW(Phe36)-scFv (scFv, V domains shown)
VH: B1 VH with W36F
VL: B1 VL with F94W
B6: (Phe34)-scFv (scFv, V domains shown)
VH: B1 VH with W34F
VL: B1 VL with F94W

Target: hen egg white lysozyme (hen) (UniProt P00698)
Sequence (P00698 19-147): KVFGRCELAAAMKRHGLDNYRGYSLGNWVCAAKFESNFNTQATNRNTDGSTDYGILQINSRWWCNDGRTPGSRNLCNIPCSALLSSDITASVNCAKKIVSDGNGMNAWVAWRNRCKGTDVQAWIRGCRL
Test: SPR

Kd [nM]	Molecule
4.03	^5FW-scFv (HyHEL10 scFv, all Trp residues substituted with 5-fluorotryptophan)

Target: hen egg white lysozyme (Gallus gallus (hen egg white), UniProt P00698)
Sequence (P00698 19-147): as above
Test: SPR

Kd [nM]	Molecule
0.272	B1
1.22	B2
1.99	B3
0.559	B4
4.22	B5
0.266	B6
